According to patent US20240066137A1 (ONEGENE BIOTECHNOLOGY, published 2024):
Read-outs that look alike come from different tables or passages of the source. Ends that are not written are not given here.

Experiments:
Experiment in all cases: cell-based or functional assay
GLP-1 acceptor [1] = biological target: T1, GLP-1 acceptor (UniProt P43220 24-463, limits assumed)
GCG acceptor = GCG acceptor (UniProt P47871 26-477, limits assumed)
FGFR1/KLB acceptor = FGFR1/KLB acceptor (UniProt P11362 22-822; Q86Z14 1-1044, limits assumed)
Chain of FGFR1/KLB acceptor (P11362 22-822 limits assumed, chain 1 of 2): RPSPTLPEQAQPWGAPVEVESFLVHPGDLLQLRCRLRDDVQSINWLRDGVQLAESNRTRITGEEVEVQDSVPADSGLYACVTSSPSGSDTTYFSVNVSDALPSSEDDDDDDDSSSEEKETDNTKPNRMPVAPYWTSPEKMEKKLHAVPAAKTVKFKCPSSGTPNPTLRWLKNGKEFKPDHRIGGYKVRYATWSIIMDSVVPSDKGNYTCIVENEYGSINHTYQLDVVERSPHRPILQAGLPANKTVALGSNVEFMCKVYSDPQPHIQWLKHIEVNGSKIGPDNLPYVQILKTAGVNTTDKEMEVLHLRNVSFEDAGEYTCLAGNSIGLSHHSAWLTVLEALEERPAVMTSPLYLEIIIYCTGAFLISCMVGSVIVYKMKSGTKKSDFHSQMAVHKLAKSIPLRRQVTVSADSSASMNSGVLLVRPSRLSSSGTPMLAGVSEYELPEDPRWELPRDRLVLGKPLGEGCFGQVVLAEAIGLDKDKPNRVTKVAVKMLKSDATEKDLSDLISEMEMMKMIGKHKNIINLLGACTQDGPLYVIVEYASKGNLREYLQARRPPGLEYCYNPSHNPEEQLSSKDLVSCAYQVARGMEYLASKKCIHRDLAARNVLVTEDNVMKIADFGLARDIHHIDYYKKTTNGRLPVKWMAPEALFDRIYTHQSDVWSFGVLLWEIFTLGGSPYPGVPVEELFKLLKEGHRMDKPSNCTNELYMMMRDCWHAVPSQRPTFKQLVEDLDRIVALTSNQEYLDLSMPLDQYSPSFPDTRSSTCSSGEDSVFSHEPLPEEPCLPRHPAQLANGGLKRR
Chain of FGFR1/KLB acceptor (Q86Z14 whole entry, chain 2 of 2): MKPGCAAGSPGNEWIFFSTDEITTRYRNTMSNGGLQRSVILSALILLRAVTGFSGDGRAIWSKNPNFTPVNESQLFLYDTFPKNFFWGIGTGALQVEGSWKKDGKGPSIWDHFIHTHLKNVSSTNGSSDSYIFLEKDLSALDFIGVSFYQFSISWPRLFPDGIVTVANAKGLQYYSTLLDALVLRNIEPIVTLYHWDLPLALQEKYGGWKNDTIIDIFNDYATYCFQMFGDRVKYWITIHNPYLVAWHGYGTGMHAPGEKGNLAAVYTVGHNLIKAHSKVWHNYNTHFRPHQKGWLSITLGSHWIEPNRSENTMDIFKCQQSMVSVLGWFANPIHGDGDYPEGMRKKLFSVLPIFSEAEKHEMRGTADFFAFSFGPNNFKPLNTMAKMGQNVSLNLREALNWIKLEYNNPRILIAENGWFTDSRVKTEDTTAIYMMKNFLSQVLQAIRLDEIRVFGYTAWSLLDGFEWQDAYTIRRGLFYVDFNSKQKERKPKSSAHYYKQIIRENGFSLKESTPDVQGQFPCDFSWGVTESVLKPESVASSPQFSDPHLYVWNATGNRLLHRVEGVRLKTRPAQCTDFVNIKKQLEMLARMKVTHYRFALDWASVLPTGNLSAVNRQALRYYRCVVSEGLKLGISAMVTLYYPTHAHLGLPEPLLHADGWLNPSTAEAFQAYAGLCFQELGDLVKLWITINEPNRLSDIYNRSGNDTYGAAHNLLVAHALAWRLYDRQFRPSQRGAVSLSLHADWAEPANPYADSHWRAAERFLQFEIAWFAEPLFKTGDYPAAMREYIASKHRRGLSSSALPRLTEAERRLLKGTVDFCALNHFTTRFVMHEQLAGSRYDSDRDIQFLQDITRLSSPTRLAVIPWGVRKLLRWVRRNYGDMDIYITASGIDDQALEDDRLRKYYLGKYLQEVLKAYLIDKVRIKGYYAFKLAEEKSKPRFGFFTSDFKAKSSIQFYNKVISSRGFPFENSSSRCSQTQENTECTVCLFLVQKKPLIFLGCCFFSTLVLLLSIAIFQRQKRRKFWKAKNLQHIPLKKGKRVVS

GLP-1 acceptor [2] = biological target: T1, GLP-1 acceptor; remark: listed apart in the source
GIP acceptor = biological target: T2, GIP acceptor (UniProt P48546 22-466, limits assumed)
T2 sequence (looked up): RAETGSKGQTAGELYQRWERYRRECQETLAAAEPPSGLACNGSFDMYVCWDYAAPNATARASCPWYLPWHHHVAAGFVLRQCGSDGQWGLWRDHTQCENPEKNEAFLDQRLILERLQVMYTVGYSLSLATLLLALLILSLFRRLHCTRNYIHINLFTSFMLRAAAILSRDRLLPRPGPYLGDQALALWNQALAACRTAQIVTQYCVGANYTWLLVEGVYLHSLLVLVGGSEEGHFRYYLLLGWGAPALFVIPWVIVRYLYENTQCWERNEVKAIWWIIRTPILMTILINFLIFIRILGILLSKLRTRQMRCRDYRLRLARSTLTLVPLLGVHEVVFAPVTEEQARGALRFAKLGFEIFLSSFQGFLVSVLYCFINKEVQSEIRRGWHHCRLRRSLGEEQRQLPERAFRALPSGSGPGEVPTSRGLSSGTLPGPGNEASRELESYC

Chain of GCG acceptor (P47871 26-477 limits assumed): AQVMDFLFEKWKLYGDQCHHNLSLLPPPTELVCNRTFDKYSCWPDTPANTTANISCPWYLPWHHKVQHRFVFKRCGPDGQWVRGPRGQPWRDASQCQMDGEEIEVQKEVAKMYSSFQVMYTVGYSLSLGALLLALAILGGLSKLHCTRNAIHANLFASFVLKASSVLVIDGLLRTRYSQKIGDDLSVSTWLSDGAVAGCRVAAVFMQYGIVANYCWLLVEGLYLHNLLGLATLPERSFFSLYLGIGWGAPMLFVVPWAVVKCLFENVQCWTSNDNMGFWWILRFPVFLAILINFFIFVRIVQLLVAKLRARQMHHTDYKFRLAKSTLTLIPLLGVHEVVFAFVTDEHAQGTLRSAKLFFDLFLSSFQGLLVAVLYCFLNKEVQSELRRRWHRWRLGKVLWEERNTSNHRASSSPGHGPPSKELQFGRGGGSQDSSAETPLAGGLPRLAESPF

HGQGTFTSDYSKYLDEQAAKEFIAWLMNT [GLP/GCG#3]
EC50, cAMP accumulation assay; Transient cell line, n = 1 (GLP-1 acceptor [1]): 13 pM | EC50, cAMP accumulation assay; Transient cell line, n = 1 (GCG acceptor): > 5000 pM

HSQGTFTSDYSKYLDEQAAKEFIAWLMNT [GLP/GCG#15]
EC50, cAMP accumulation assay; Transient cell line, n = 1 (GLP-1 acceptor [1]): 16 pM | EC50, cAMP accumulation assay; Transient cell line, n = 1 (GCG acceptor): 424 pM

B1: FGF#1 (ligand)
chain: HPIPDSSPLLQFGGQVRQRYLYTDDAQQTEAHLEIREDGTVGGAADQSPESLLQLKALKPGVIQILGVKTSRFLCQRPDGALYGSLHFDPEACSFREEIRPDGYNVYQSEAHGLPLHLPGNKSPHRDPAPRGPARFLPLPGLPPALPEPPGILAPQPPDVGSSDPLSMVTGLEANRSPSYES
EC50, FGFR1/KLB functional assay; n = 2 (FGFR1/KLB acceptor): 21000 pM

HGEGTFTSDVSEYLEKQAAKEFIAWLVRGRG [GLP#7]
EC50, cAMP accumulation assay; Transient cell line, n = 1 (GLP-1 acceptor [2]): 23 pM

HGEGTFTSDVSEYLEKQAAQEFIAWLVKGR [GLP#10]
EC50, cAMP accumulation assay; Transient cell line, n = 2 (GLP-1 acceptor [2]): 8.26 pM

HSEGTFTSDVSSYLEGQAAQEFIAWLVNGR [GLP#1]
EC50, cAMP accumulation assay; Transient cell line, n = 1 (GLP-1 acceptor [2]): 159 pM

YGEGTFISDYSIAMDKIHQQDFVNWLLAQKGKKNDWKHNITQ [GIP#1]
EC50, cAMP accumulation assay; Transient cell line, n = 3 (GIP acceptor): 17.5 pM

YSEGTFISDYSIAMDKIHQQDFVNWLLAQKGKKNDWKHNITQ [GIP#2]
EC50, cAMP accumulation assay; Stable cell line, n = 2 (GIP acceptor): 12 pM | EC50, cAMP accumulation assay; Transient cell line, n = 3 (GIP acceptor): 6.63 pM

YGEGTFISDYSIAMDKIRQQDFVNWLLAQKGKKNDWKHNITQ [GIP#7]
EC50, cAMP accumulation assay; Transient cell line, n = 1 (GIP acceptor): 76.9 pM

FSEGTFISDYSIAMDKIHQQDFVNWLLAQKGKKNDWKHNITQ [GIP#5]
EC50, cAMP accumulation assay; Transient cell line, n = 1 (GIP acceptor): 81.9 pM

HGEGTFTSDVSEYLEKQAAKEFIAWLVNGR [GLP#3]
EC50, cAMP accumulation assay; Transient cell line, n = 2 (GLP-1 acceptor [2]): 2.25 pM

HSEGTFTSDVSEYLEKQAAKEFIAWLVKGR [GLP#6]
EC50, cAMP accumulation assay; Transient cell line, n = 2 (GLP-1 acceptor [2]): 1.5 pM

B2: FGF#7 (ligand)
chain: HPIPDSSPLLQFGGQVRQVYLYTDDAQQTEAHLEIREDGTVGGAADQSPESLLQLKALKPGVIQILGVKTSRFLCQRPDGALYGSLHFDPEACSFREDLKEDGYNVYQSEAHGLPLHLPGNKSPHRDPAPRGPARFLPLPGLPPALPEPPGILAPQPPDVGSSDPLRLVEPSQLRSPSFE
EC50, FGFR1/KLB functional assay; n = 2 (FGFR1/KLB acceptor): 17700 pM

HSEGTFTSDVSSYLEEQAAKEFIAWLVKGGG [GLP#5]
EC50, cAMP accumulation assay; Transient cell line, n = 1 (GLP-1 acceptor [2]): 7.52 pM

HGEGTFTSDVSSYLEEQAAKEFIAWLVKGGG (ends and bridges not checked) [GLP#9]
EC50, cAMP accumulation assay; Stable cell line, n = 4 (GLP-1 acceptor [2]): 2.08 pM | EC50, cAMP accumulation assay; Transient cell line, n = 3 (GLP-1 acceptor [2]): 0.71 pM

HGEGTFTSDVSSYLEEQAAKEFIAWLVRGRG [GLP#8]
EC50, cAMP accumulation assay; Transient cell line, n = 2 (GLP-1 acceptor [2]): 1.95 pM

B3: FGF#5 (ligand)
chain: HPIPDSSPLLQFGGQVRQVYLYTDDAQQTEAHLEIREDGTVGGAADQSPESLLQLKALKPGVIQILGVKTSRFLCQRPDGALYGSLHFDPEACSFREDLKEDGYNVYQSEAHGLPLHLPGNKSPHRDPAPRGPARFLPLPGLPPALPEPPGILAPQPPDVGSSDPLSMVEGSQGRSPSYES
EC50, FGFR1/KLB functional assay; n = 2 (FGFR1/KLB acceptor): 22300 pM

B4: FGF#9 (ligand)
chain: HPIPDSSPLLQFGGQVRQVYLYTDDAQQTEAHLEIREDGTVGGAADQSPESLLQLKALKPGVIQILGVKTSRFLCQRPDGALYGSLHFDPEACSFRERLLEDGYNVYQSEAHGLPLHLPGNKSPHRDPAPRGPARFLPLPGLPPALPEPPGILAPQPPDVGSSDPLSMVEGSQGRSPSYES
EC50, FGFR1/KLB functional assay; n = 2 (FGFR1/KLB acceptor): 19100 pM
